Residue numbers refer to the chain shown, from its start. In names and notes the source's numbering stands. Entries after “also recorded” stand apart in the source; their conditions may differ.
What was measured:
acVHH-V104D [1] = assay: NanoBiT protein complementation assay in Jurkat T cells, intracellular binding to acVHH-V104D; assay type: cell-based, llama; conditions: for background signal in the absence of caffeine / background signal at very low concentrations of caffeine: compared with acVHH-WT/acVHH-WT homodimers
Source text: (§1) The ac VHH variants were N-terminally fused to an extracellular globular domain used to assess expression, as well as a transmembrane domain, and C-terminally fused to a subunit of the split NanoLuc (NanoBiT® system), Promega. Thus, the resulting fusion protein consisted of an extracellular globular domain, followed by a transmembrane domain and intracellular ac VHH variants followed by a subunit of split NanoLuc luciferase.
The different chains built were as follows: the first polypeptide chain comprised truncated EGFR extracellular and transmembrane domain, followed by a 2×G4S linker and cither ac VHH-V104D or ac VHH-WT, followed by a linker (SEQ ID NO:31) and 11S NanoBiT® “Large BiT”, whereas the second polypeptide chain comprised truncated HER2 extracellular and transmembrane domain, followed by a linker (SEQ ID NO:32) and either ac VHH-V104D or ac VHH-WT or ac VHH-M1 or acVHH-M2 or dfM1-1 or dfM1-2, followed by a linker (SEQ ID NO:33) and 114 NanoBiT® “Small BiT”. The sequence of the truncated HER2 extracellular and transmembrane domain involved the amino acids at positions 339-683 according to the deposited Uniprot sequence (ID P04626). The sequence of the truncated EGFR extracellular and transmembrane domain involved the amino acids at positions 334-675 according to the deposited Uniprot sequence (ID P00533). The principle of the assay is as follows: upon binding of (i.e. dimerization) of the respective ac VHH variants, the fused NanoLuc luciferase subunits are brought into close proximity (the two subunits being fused to the two different polypeptide chains, respectively), thus resulting in a functional luciferase enzyme, whose activity can be measured.
In vitro transcription was performed with 200 ng of purified PCR product using the mMessage mMachine T7 Ultra Kit (Ambion) according to the manufacturer's instructions. The resulting mRNAs were column purified with the RNeasy Kit (Qiagen), aliquoted to 5 μg and frozen at −80° C. until electroporation. Jurkat T cells were electroporated with 5 μg mRNA per chain (10 μg mRNA total) using the Gene Pulser (Bio-Rad) and the following parameters: square wave protocol, 500 V, 5 ms, 4 mm cuvettes.
Intracellular function of the dimers was assessed with the Nano-Glo® Luciferase Assay System (Promega).

[2] = Preparative size exclusion chromatography of acVHH variants; assay type: physicochemical; conditions: HiLoad Superdex 75 pg, elution in PBS
Procedure: Protein aggregates were removed via preparative size exclusion chromatography (SEC). The samples were first centrifuged at 16 000 rpm for 3 min to remove large aggregates and the supernatant was loaded onto a HiLoad Superdex 75 pg column connected to a Bio-Rad NG-C chromatography system. Elution was performed in PBS and the fractions containing proteins based on absorbance at 280 nm were pooled, concentrated as mentioned above and stored at −30° C.

acVHH-V104D [3] = assay: Yeast surface display binding of acVHH variants to soluble acVHH-V104D; set-up: species or system llama; conditions: for background binding signal in the absence of any small molecule: 500 nM soluble acVHH-V104D, buffer only (control, PBSA); for affinity towards acVHH-V104D: summary statement, interaction dependent on caffeine; for dependency of heterodimerization with acVHH-V104D on the presence of caffeine: yeast display flow cytometry, with or without caffeine; for affinity (KD) to acVHH-V104D: titration with soluble acVHH-V104D in the presence of 30 μM caffeine
Procedure: The staining for flow cytometry characterization was performed in PBSA (PBS containing 15 μM bovine serum albumin). […] In addition, controls with buffer only (containing neither an ac VHH variant nor caffeine) were included. After a washing step the cells were stained for 20 min at 4° C. and shaking with either streptavidin-Alexa Fluor 647 (Invitrogen) or Penta-His-Alexa Fluor 647 (Qiagen) to assess acVHH-V104D or acVHH-WT binding, as well as anti-HA-Alexa Fluor 488 (clone 16B12, Biolegend) or anti-c-myc AlexaFluor 488 (9E10, Thermofisher) to assess display (anti-HA) or full-length display (anti-c-myc) of the acVHH variants, respectively. After a final washing step, the cells were analyzed with a CytoFLEX S flow cytometer (Beckman Coulter).
Expression of the acVHH variants on yeast was induced by culturing the cells in SG-CAA medium (20 g/L galactose, 2 g/L glucose, 6.7 g/L yeast nitrogen base, 5 g/L bacto casamino acids, 10.2 g/L Na2HPO4*7 H2O, 8.56 g/L NaH2PO4*H2O) overnight at 20° C. and 180 rpm. Detection of full-length proteins on the surface of the cells was carried out by staining the cells with anti-c-myc AlexaFluor 488 (9E10, Thermo Fisher). […] After a washing step with PBSA, they were stained with an anti-HA-Alexa Fluor 488 (BioLegend) to gate for displaying yeast cells and the geometric mean fluorescence intensity (gMFI) of binding to acVHH-V104D, detected by co-staining with a Penta-His-Alexa Fluor 647 (Qiagen) (recognizing the His-tag on acVHH-V104D) was measured.
Expression of the variants on yeast was carried out in SG-CAA as described above. Full length display was assessed by staining with an anti-c-myc AlexaFluor 488 (9E10, Thermo Fisher) and binding to soluble acVHH-V104D was assessed by staining with Penta-His-Alexa Fluor 647 (Qiagen).
56 clones of the library were sequenced as explained in Example 2. Only 2 variants were obtained, namely dfM1-1 and dfM1-2. Their binding and affinity to soluble acVHH-V104D as well as full length display was assessed with yeast surface display as described in Example 2.

acVHH-WT = assay: NanoBiT protein complementation assay in Jurkat T cells, acVHH-WT homodimer; assay type: cell-based, llama
Source text: as §1
The different chains built were as follows: the first polypeptide chain comprised truncated EGFR extracellular and transmembrane domain, followed by a 2×G4S linker and cither ac VHH-V104D or ac VHH-WT, followed by a linker (SEQ ID NO:31) and 11S NanoBiT® “Large BiT”, whereas the second polypeptide chain comprised truncated HER2 extracellular and transmembrane domain, followed by a linker (SEQ ID NO:32) and either ac VHH-V104D or ac VHH-WT or ac VHH-M1 or acVHH-M2 or dfM1-1 or dfM1-2, followed by a linker (SEQ ID NO:33) and 114 NanoBiT® “Small BiT”. […] The principle of the assay is as follows: upon binding of (i.e. dimerization) of the respective ac VHH variants, the fused NanoLuc luciferase subunits are brought into close proximity (the two subunits being fused to the two different polypeptide chains, respectively), thus resulting in a functional luciferase enzyme, whose activity can be measured. […]

[4] = +/- 30 μM caffeine, normalized to acVHH-WT homodimer with caffeine
[5] = increasing concentrations of caffeine

B1: acVHH-V104D: acVHH-WT variant with point mutation V104D, SEQ ID NO:2; first antigen binding domain AB1 (protein)
VHH: QVQLVESGGGLVQAGGSLRLSCTASGRTGTIYSMAWFRQAPGKEREFLATVGWSSGITYYMDSVKGRFTISRDKGKNTVYLQMDSLKPEDTAVYYCTATRAYSDGYDYWGQGTQVTVSS
intracellular binding with acVHH-V104D (acVHH-V104D [1]; [4]): does not show any detectable homodimerization | intracellular binding with acVHH-V104D (acVHH-V104D [1]; [5]): does not show any detectable homodimerization | preparative SEC profile [2]: monomeric profile; also recorded: elutes as a defined monomeric peak

B2: acVHH-M2 (protein)
chain: B1 VHH with T50Q, V51Q, G52R, S54L, S55F, G56R, I57R, D104V
modifications: left off: large carriers; small tags and cut ends
intracellular binding with acVHH-V104D (acVHH-V104D [1]; [4]): not detectable | background signal in the absence of caffeine (acVHH-V104D [1]): strongly reduced | background binding signal in the absence of any small molecule (acVHH-V104D [3]): virtual absence of any background signal | affinity towards acVHH-V104D (acVHH-V104D [3]): high affinity in the nanomolar range | dependency of heterodimerization with acVHH-V104D on the presence of caffeine (acVHH-V104D [3]): clear dependency

B3: acVHH-M1 (protein)
chain: B1 VHH with T50P, G52A, W53L, S54G, S55L, G56Q, I57S, D104V
modifications: left off: large carriers; small tags and cut ends
intracellular binding with acVHH-V104D (acVHH-V104D [1]; [4]): weak | background signal at very low concentrations of caffeine (acVHH-V104D [1]): strongly reduced | background signal in the absence of caffeine (acVHH-V104D [1]): strongly reduced | background binding signal in the absence of any small molecule (acVHH-V104D [3]): virtual absence of any background signal; also recorded: does not trigger any detectable signal | affinity towards acVHH-V104D (acVHH-V104D [3]): high affinity in the nanomolar range | affinity (KD) to acVHH-V104D (acVHH-V104D [3]): low nM range | dependency of heterodimerization with acVHH-V104D on the presence of caffeine (acVHH-V104D [3]): clear dependency

B4: acVHH-WT: existing thermally stable caffeine-specific single domain antibody fragment from llama used for homodimerization, SEQ ID NO:1 (protein)
VHH: B1 VHH with D104V
intracellular binding with acVHH-V104D (acVHH-V104D [1]; [5]): very weak heterodimerization | intracellular homodimerization of acVHH-WT (acVHH-WT; +/- 30 μM caffeine): shows homodimerization, which is enhanced by addition of caffeine | intracellular homodimerization of acVHH-WT (acVHH-WT; [5]): shows homodimerization, which is enhanced by addition of caffeine

B5: dfM1-1 (protein)
chain: QVQLVESGGGLVQAGGSLRLSATAYGKTGTIYSMAWFRQAPGKEREFLAPVALGLQSTYYMDSVKGRFTISRDKGKNTVYLQMDSLKPEDTAVYYAAATRAYSVGYDYWGQGTQVTVTS
modifications: left off: large carriers; small tags and cut ends
intracellular binding with acVHH-V104D (acVHH-V104D [1]; [4]): efficient heterodimerization | background signal at very low concentrations of caffeine (acVHH-V104D [1]): strongly reduced | background signal in the absence of caffeine (acVHH-V104D [1]): strongly reduced | background binding signal in the absence of any small molecule (acVHH-V104D [3]): does not trigger any detectable signal | affinity towards acVHH-V104D (acVHH-V104D [3]): high affinity in the nanomolar range | affinity (KD) to acVHH-V104D (acVHH-V104D [3]): low nM range

B6: dfM1-2 (protein)
chain: B5 chain with Q1E, K27R, T118S
modifications: left off: large carriers; small tags and cut ends
intracellular binding with acVHH-V104D (acVHH-V104D [1]; [4]): efficient heterodimerization | background signal at very low concentrations of caffeine (acVHH-V104D [1]): strongly reduced | background signal in the absence of caffeine (acVHH-V104D [1]): strongly reduced | background binding signal in the absence of any small molecule (acVHH-V104D [3]): does not trigger any detectable signal | affinity towards acVHH-V104D (acVHH-V104D [3]): high affinity in the nanomolar range | affinity (KD) to acVHH-V104D (acVHH-V104D [3]): low nM range
